The target in this assay is SARS-CoV-2 spike (S) glycoprotein, Omicron BA.4.6 (SARS-CoV-2), P0DTC2. As to the kind of experiment: cell-based or functional assay.

B1: mAb_v2130Vanderbilt_184_20220114_00112 (antibody, V domains shown)
VH: EVQLVESGGGLVKPGGSLRLSCAASGFTFRDVWMSWVRQAPGKGLEWVGRIKSKIDGGTTDYAAPVKGRFTISRDDSKNTLYLQMNSLKTEDTAVYYCTTAGSYYYDTVGPELPEGKFDYWGQGTLVTVSS
VL: not shown
B1: the pseudoviral neutralization IC50 was 1.26 µg/mL.
